The record followed here is paper PMC8104870.

The target of the test is T1, bacteriophage phi29 DNA packaging ATPase gp16 (bacteriophage phi29), P11014.
T1 chain: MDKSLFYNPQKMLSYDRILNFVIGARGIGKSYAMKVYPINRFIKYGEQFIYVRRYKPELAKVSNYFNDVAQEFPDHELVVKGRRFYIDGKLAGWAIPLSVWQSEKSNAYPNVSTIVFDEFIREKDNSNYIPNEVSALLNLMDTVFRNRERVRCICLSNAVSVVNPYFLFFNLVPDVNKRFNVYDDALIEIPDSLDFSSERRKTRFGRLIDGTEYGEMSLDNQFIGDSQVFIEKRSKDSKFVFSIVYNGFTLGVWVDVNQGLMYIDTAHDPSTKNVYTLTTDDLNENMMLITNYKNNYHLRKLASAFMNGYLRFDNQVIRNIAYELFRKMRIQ
As to the kind of experiment: cryo-EM structure. As to conditions: remark: other sources report otherwise.

B1: bacteriophage phi29 DNA packaging ATPase gp16, P11014 1-332 (enzyme)
chain: MDKSLFYNPQKMLSYDRILNFVIGARGIGKSYAMKVYPINRFIKYGEQFIYVRRYKPELAKVSNYFNDVAQEFPDHELVVKGRRFYIDGKLAGWAIPLSVWQSEKSNAYPNVSTIVFDEFIREKDNSNYIPNEVSALLNLMDTVFRNRERVRCICLSNAVSVVNPYFLFFNLVPDVNKRFNVYDDALIEIPDSLDFSSERRKTRFGRLIDGTEYGEMSLDNQFIGDSQVFIEKRSKDSKFVFSIVYNGFTLGVWVDVNQGLMYIDTAHDPSTKNVYTLTTDDLNENMMLITNYKNNYHLRKLASAFMNGYLRFDNQVIRNIAYELFRKMRIQ
Usually stoichiometry N stands for a count of units in the complex or per binding partner. As to B1, the stoichiometry N was 5.
